Laboratory results reported in US20230380451A1, “MEANS AND METHODS TO DETOXIFY MYCOTOXINS” (priority 2020, published 2023).

Key:
[1] = Storage stability in storage buffer at different temperatures, residual DON transformation activity; assay type: biochemical; settings: for Relative DON transformation activity: storage buffer
Method: (§1) To determine the transformation of DON to epi-THS by Akr I-III, described herein, the following assay was performed. An assay buffer was prepared containing 40 ppm DON, 1 mM NADPH in Teorell Stenhagen (TS) buffer, pH 6.0 (Östling and Virtama, Acta Physiologica Scandinavica, 1946, 11:4, 289-293). Tubes containing the assay buffer were transferred in a heating block at 30° C. The reaction was started by addition of Akr I-III to a final concentration of 200 nM in a final reaction volume of 200 μL. Samples were taken before reaction start, and 2, 5, 10, 15 and 20 min after reaction start. DON transformation reactions in these samples were stopped by mixing with absolute methanol at a 1:2 ratio, followed by a 1:100 dilution with 40% methanol. The concentrations of DON and epi-THS in the samples were determined with liquid chromatography-mass spectrometry (LC-MS) on a Sciex 5500 triple quadrupole mass spectrometer coupled to Agilent 1290 series UHPLC system, using the following MS parameters: Acquisition duration: 4 min; Scan Type: MRM (MRM); Polarity: Negative; Ion Source: Turbo Spray.
The storage stability of Akr I-III was tested by incubation of 5 μM enzyme solutions in storage buffer (50 mM Tris pH 9.0, 0.5M NaCl, 50% Glycerol), for 60 min in a thermocycler (Mastercycler, Eppendorf) set to gradient mode from 30° C. to 50° C. Throughout the incubation, samples were removed and placed on ice until DON transformation assays were performed as described in Example 3 to determine enzyme activities. The starting activity at time 0 min was set to 100% and the relative residual activities were determined throughout the incubation. Akr I retained more than 33% activity during 60 min in pH 6 at temperatures from 29.9° C. to 46.0° C. Akr III retained 15% to 90% activity during 20 min in pH 6 at temperatures from 29.9° C. to 40.7° C.

[2] = Kinetic parameters of DON transformation (Michaelis-Menten fit); assay type: biochemical; settings: 200 nM enzyme, TS buffer pH 6.0, 1 mM NADPH
Method: as §1
Kinetic parameters were determined by performing the DON transformation assay as described in Example 3. Akr I-III were used at a final concentration of 200 nM in Teorell Stenhagen (TS) buffer, pH 6.0 (Ostling and Virtama, Acta Physiologica Scandinavica, 1946, 11:4, 289-293) further containing 1 mM NADPH and DON at a concentration of either 3.38 μM, 33.78 μM, 135.14 μM, 270.27 μM or 1182.43 μM. The observed reaction rates and the corresponding DON concentrations were fitted to the Michaelis-Menten function used to describe enzyme kinetics. The fitting was done using the program SigmaPlot (Systat Software Inc.) to calculate the maximum DON transformation rate of Akr I-III in the assay (Vmax), the Michaelis constant (KM) and the turnover number (kcat). […].

B1: Akr I: artificial amino acid sequence, variant of a wild type aldo-keto reductase (protein)
chain: MRTTEISQGLKVSNLCIGAGPLGGMPTAFGYDVSEERGIATVQAVFDSPINFMDTSSEYGDSEVRIGKVIREGRMPKGFVIATKADAEGDGTARRGDFSAKQVRASFELSLERLGLTHIDVYFLHDPEKFPFEHVMARGGAMEELLRLKDEGLVGLVGVAGGDVVEMARYVDTGNLDILLNYGRYTLLDRSADSLIDKASDAGMAFLNAGPYASGLLAAPRGGSAWYQYAPPNADALQAVDQLHELCESFDVSLRSVALQFSMRDPRITSTVVGLSRPERVRALLDDAAAEIPAELWDQLPAPLNLPWNSLA
modifications: ArkI
**Q.** With B1 as the molecule, how does the retained activity ([1]; during 60 min in pH 6 at temperatures from 29.9° C. to 46.0° C.) read?
**A.** The retained activity was “more than 33%”.

**Q.** What about the “Relative DON transformation activity” value ([1]; 29.9° C., 0 min (starting activity set to 100%)) of the same molecule?
**A.** The value was 100.00%.

**Q.** What about the “Relative DON transformation activity” value ([1]; 29.9° C., 5 min) of the same molecule?
**A.** Its value is 121.5%.

**Q.** What about the “Relative DON transformation activity” value ([1]; 29.9° C., 10 min) of the same molecule?
**A.** Its value is 114.8%.

**Q.** And the “Relative DON transformation activity” value ([1]; 29.9° C., 20 min)?
**A.** The value was 118.9%.

**Q.** And the “Relative DON transformation activity” value ([1]; 29.9° C., 35 min)?
**A.** Its value is 106.2%.

**Q.** And the “Relative DON transformation activity” value ([1]; 29.9° C., 50 min)?
**A.** The value was 70.1%.

**Q.** And the “Relative DON transformation activity” value ([1]; 29.9° C., 60 min)?
**A.** Its value is 53.7%.

**Q.** What about the “Relative DON transformation activity” value ([1]; 35.3° C., 0 min (starting activity set to 100%)) of the same molecule?
**A.** The value was 100.00%.

**Q.** And the “Relative DON transformation activity” value ([1]; 35.3° C., 5 min)?
**A.** Its value is 132.8%.

**Q.** What about the “Relative DON transformation activity” value ([1]; 35.3° C., 10 min) of the same molecule?
**A.** Its value is 97.7%.

**Q.** And the “Relative DON transformation activity” value ([1]; 35.3° C., 20 min)?
**A.** The value was 101.5%.

**Q.** And the “Relative DON transformation activity” value ([1]; 35.3° C., 35 min)?
**A.** Its value is 109.7%.

**Q.** And the “Relative DON transformation activity” value ([1]; 35.3° C., 50 min)?
**A.** Its value is 84.6%.

**Q.** And the “Relative DON transformation activity” value ([1]; 35.3° C., 60 min)?
**A.** The value was 47.0%.

**Q.** And the “Relative DON transformation activity” value ([1]; 37.9° C., 0 min (starting activity set to 100%))?
**A.** The value was 100.00%.

**Q.** And the “Relative DON transformation activity” value ([1]; 37.9° C., 5 min)?
**A.** The value was 130.1%.

**Q.** What about the “Relative DON transformation activity” value ([1]; 37.9° C., 10 min) of the same molecule?
**A.** Its value is 101.4%.

**Q.** What about the “Relative DON transformation activity” value ([1]; 37.9° C., 20 min) of the same molecule?
**A.** Its value is 110.1%.

**Q.** What about the “Relative DON transformation activity” value ([1]; 37.9° C., 35 min) of the same molecule?
**A.** The value was 109.0%.

**Q.** And the “Relative DON transformation activity” value ([1]; 37.9° C., 50 min)?
**A.** Its value is 77.0%.

**Q.** What about the “Relative DON transformation activity” value ([1]; 37.9° C., 60 min) of the same molecule?
**A.** Its value is 48.6%.

**Q.** And the “Relative DON transformation activity” value ([1]; 40.7° C., 0 min (starting activity set to 100%))?
**A.** The value was 100.00%.

**Q.** What about the “Relative DON transformation activity” value ([1]; 40.7° C., 5 min) of the same molecule?
**A.** The value was 130.2%.

**Q.** And the “Relative DON transformation activity” value ([1]; 40.7° C., 10 min)?
**A.** Its value is 100.7%.

**Q.** And the “Relative DON transformation activity” value ([1]; 40.7° C., 20 min)?
**A.** Its value is 60.5%.

**Q.** What about the “Relative DON transformation activity” value ([1]; 40.7° C., 35 min) of the same molecule?
**A.** Its value is 95.8%.

**Q.** And the “Relative DON transformation activity” value ([1]; 40.7° C., 50 min)?
**A.** The value was 76.1%.

**Q.** What about the “Relative DON transformation activity” value ([1]; 40.7° C., 60 min) of the same molecule?
**A.** The value was 50.0%.

**Q.** And the “Relative DON transformation activity” value ([1]; 43.4° C., 0 min (starting activity set to 100%))?
**A.** Its value is 100.00%.

**Q.** What about the “Relative DON transformation activity” value ([1]; 43.4° C., 5 min) of the same molecule?
**A.** Its value is 133.6%.

**Q.** What about the “Relative DON transformation activity” value ([1]; 43.4° C., 10 min) of the same molecule?
**A.** The value was 111.3%.

**Q.** And the “Relative DON transformation activity” value ([1]; 43.4° C., 20 min)?
**A.** The value was 79.1%.

**Q.** What about the “Relative DON transformation activity” value ([1]; 43.4° C., 35 min) of the same molecule?
**A.** The value was 75.2%.

**Q.** And the “Relative DON transformation activity” value ([1]; 43.4° C., 50 min)?
**A.** Its value is 60.2%.

**Q.** What about the “Relative DON transformation activity” value ([1]; 43.4° C., 60 min) of the same molecule?
**A.** The value was 52.9%.

**Q.** What about the “Relative DON transformation activity” value ([1]; 46.0° C., 0 min (starting activity set to 100%)) of the same molecule?
**A.** Its value is 100.00%.

**Q.** What about the “Relative DON transformation activity” value ([1]; 46.0° C., 5 min) of the same molecule?
**A.** The value was 125.9%.

**Q.** What about the “Relative DON transformation activity” value ([1]; 46.0° C., 10 min) of the same molecule?
**A.** The value was 123.1%.

**Q.** What about the “Relative DON transformation activity” value ([1]; 46.0° C., 20 min) of the same molecule?
**A.** Its value is 83.4%.

**Q.** What about the “Relative DON transformation activity” value ([1]; 46.0° C., 35 min) of the same molecule?
**A.** Its value is 61.8%.

**Q.** And the “Relative DON transformation activity” value ([1]; 46.0° C., 50 min)?
**A.** The value was 3.0%.

**Q.** And the “Relative DON transformation activity” value ([1]; 46.0° C., 60 min)?
**A.** The value was 33.1%.

**Q.** What about the “Relative DON transformation activity” value ([1]; 50.8° C., 0 min (starting activity set to 100%)) of the same molecule?
**A.** The value was 100.00%.

**Q.** What about the “Relative DON transformation activity” value ([1]; 50.8° C., 5 min) of the same molecule?
**A.** Its value is 118.6%.

**Q.** And the “Relative DON transformation activity” value ([1]; 50.8° C., 10 min)?
**A.** Its value is 44.2%.

**Q.** What about the “Relative DON transformation activity” value ([1]; 50.8° C., 20 min) of the same molecule?
**A.** Its value is 16.3%.

**Q.** What about the “Relative DON transformation activity” value ([1]; 50.8° C., 35 min) of the same molecule?
**A.** Its value is 4.9%.

**Q.** And the “Relative DON transformation activity” value ([1]; 50.8° C., 50 min)?
**A.** Its value is 7.5%.

**Q.** And the “Relative DON transformation activity” value ([1]; 50.8° C., 60 min)?
**A.** The value was 0%.

**Q.** And the “Vmax (maximum DON transformation rate)” value [2]?
**A.** The value was 8471 U/mg.

**Q.** What about the “kcat (turnover number)” value [2] of the same molecule?
**A.** The value was 5.08 s⁻¹.

**Q.** What about the Km ([2]; substrate DON, read-out: KM (Michaelis constant)) of the same molecule?
**A.** Its Km is 143 µM.
